# Test results taken from the supplement of paper PMC9233669.
# Fewer inactive variants are shown than the library holds.
# What was measured:
# [1] = tested on: biotinyl-Ile-oxazolone; experiment: self-aminoacylation, catalytic enhancement (BIO) (fold over background); higher = more active; k-Seq, kA / k0A0; sequences stand for … in GGGAAUGGAUCCACAUCUACGAAUUC…UUCACUGCAGACUUGACGAAGCUG
# Outline: (§1)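 Working in 50 μL HEPES/NaCl/KCl/MgCl2/CaCl2 buffer with 5% acetonitrile at pH 6.9–7.0, mutagenized RNA pools (0.43 μM; 21-nt variable region) were reacted with 2–1250 μM of each biotinyl-aminoacyl-oxazolone for 90 minutes at room temperature. Streptavidin capture followed, with quantification by triplicate qPCR and Illumina sequencing. Catalytic enhancement is reported as median kA over the uncatalyzed rate, the low-activity peak of a bimodal Gaussian fit to the data.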
# [2] = tested on: biotinyl-Leu-oxazolone; experiment: self-aminoacylation, catalytic enhancement (BLO) (fold over background); higher = more active; k-Seq, kA / k0A0; sequences stand for … in GGGAAUGGAUCCACAUCUACGAAUUC…UUCACUGCAGACUUGACGAAGCUG
# Outline: as §1
# [3] = tested on: biotinyl-Phe-oxazolone; experiment: self-aminoacylation, catalytic enhancement (BFO) (fold over background); higher = more active; k-Seq, kA / k0A0; sequences stand for … in GGGAAUGGAUCCACAUCUACGAAUUC…UUCACUGCAGACUUGACGAAGCUG
# Outline: as §1
# [4] = tested on: biotinyl-Val-oxazolone; experiment: self-aminoacylation, catalytic enhancement (BVO) (fold over background); higher = more active; k-Seq, kA / k0A0; sequences stand for … in GGGAAUGGAUCCACAUCUACGAAUUC…UUCACUGCAGACUUGACGAAGCUG
# Outline: as §1
# [5] = tested on: biotinyl-Trp-oxazolone; experiment: self-aminoacylation, catalytic enhancement (BWO) (fold over background); higher = more active; k-Seq, kA / k0A0; sequences stand for … in GGGAAUGGAUCCACAUCUACGAAUUC…UUCACUGCAGACUUGACGAAGCUG
# Outline: as §1
# [6] = tested on: biotinyl-Met-oxazolone; experiment: self-aminoacylation, catalytic enhancement (BMO) (fold over background); higher = more active; k-Seq, kA / k0A0; sequences stand for … in GGGAAUGGAUCCACAUCUACGAAUUC…UUCACUGCAGACUUGACGAAGCUG
# Outline: as §1
Sequence,self-aminoacylation [1],self-aminoacylation [2],self-aminoacylation [3],self-aminoacylation [4],self-aminoacylation [5],self-aminoacylation [6]
CCACACCUCAAGCAAUCGGUC [Fam1B.1 aminoacylation ribozyme variant],1.03,0.908,2.37,1.15,1.56,0.862
AAGUCUGCAAAUAGUCGCAAG [Fam3.1 aminoacylation ribozyme variant],0.902,0.891,1.15,0.671,1.22,0.888
AUUACCCUGGUCAUAGAGUCA [Fam2.1 aminoacylation ribozyme variant],0.884,0.962,0.531,0.974,0.529,0.82
AAUACCCUGGCCAUCGAGUGA [Fam2.1 aminoacylation ribozyme variant],1.85,2.71,2.33,1.64,3.4,2.08
AUUACGCUGGUCAUGGAGUGA [Fam2.1 aminoacylation ribozyme variant],2.29,2.76,5.28,2.39,3.44,2.67
AUUAUCCUGGUCAUCGACUGA [Fam2.1 aminoacylation ribozyme variant],0.875,0.941,0.418,0.785,0.498,0.65
CCAGACUUCAGGCAAUCGGUC [Fam1B.1 aminoacylation ribozyme variant],1.45,1.57,1.79,1.64,1.83,1.36
AUUACCCUAGGUCAUCGGGUG [Fam2.2 aminoacylation ribozyme variant],5.23,11.9,51.7,5.13,8.1,8.02
AAUACCCUGGUAAUCGAGUGA [Fam2.1 aminoacylation ribozyme variant],3.96,8.53,38.5,3.37,10.3,7.38
AUUUACCUGGGUCAUCGGGUG [Fam2.2 aminoacylation ribozyme variant],8.99,22.1,57.3,10.3,17.2,18.5
AUUACCCUGGUCAUCGAGUAU [Fam2.1 aminoacylation ribozyme variant],8,23.6,97.7,9.24,24.4,26.9
AUUAGCCUGGUCCUCGAGUGA [Fam2.1 aminoacylation ribozyme variant],2.67,5.41,36.7,2.84,5.08,4.69
AUUACUAUGGUCAUCGAGUGA [Fam2.1 aminoacylation ribozyme variant],3.32,6.66,22.6,3.31,8.33,6.37
AAGUUUGCCAGUAGUCGCAAG [Fam3.1 aminoacylation ribozyme variant],1.04,1.02,0.763,0.932,1.21,0.793
CCACCCUACAAGCAAUCGGUC [Fam1B.1 aminoacylation ribozyme variant],1.36,1.19,0.931,1.17,1.16,1.3
UUUCACCUAGGUCACCGGGUG [Fam2.2 aminoacylation ribozyme variant],3.8,5.2,26.7,3.87,5.47,3.77
AUUACCCUGGUCAUCGAGUGC [Fam2.1 aminoacylation ribozyme variant],3.92,10.9,24.9,4.71,8.98,11.4
CCACAGAUCAAGCAAUCGGUC [Fam1B.1 aminoacylation ribozyme variant],1.01,0.81,2.39,0.824,1.61,0.576
AAUACCGUGGUCAUCGAGUGA [Fam2.1 aminoacylation ribozyme variant],2.89,4.83,26.4,2.81,5.14,5.12
AUUACCCUGUUCGUCGAGUGA [Fam2.1 aminoacylation ribozyme variant],1.15,0.865,0.834,1.2,1.44,0.885
CCACACUUCCAGCAAUCGGUC [Fam1B.1 aminoacylation ribozyme variant],1.14,0.9,1.03,1.25,0.872,0.882
UUUCCCCUAGGUCAUCGGGUG [Fam2.2 aminoacylation ribozyme variant],6.97,15.1,96.8,6.87,10.4,11.8
AAGUUUGAUAAUAGUCGCAAC [Fam3.1 aminoacylation ribozyme variant],0.926,0.718,1.27,0.809,0.736,0.773
AUUACCCUGGUAAUCAAGUGA [Fam2.1 aminoacylation ribozyme variant],1.71,3.14,16.1,1.73,3.48,3.27
CCACACUUCAAUCAACCGGUC [Fam1B.1 aminoacylation ribozyme variant],0.862,1.06,0.923,1.02,1.22,0.665
AUUCACCUAGGUCAUCGGGCU [Fam2.2 aminoacylation ribozyme variant],5.03,12.4,37.6,4.55,6.09,8.6

Sequence,self-aminoacylation [1],self-aminoacylation [2],self-aminoacylation [3],self-aminoacylation [4],self-aminoacylation [5],self-aminoacylation [6]
UUUUCCCUGGUCAUCGAGUGA [Fam2.1 aminoacylation ribozyme variant],5.39,11.1,16.5,5.81,14.3,11.1
CUACUUCAAACAAUUGGUCGG [Fam1A.1 aminoacylation ribozyme variant],1.25,1.18,0.858,1.11,0.932,0.91
AUGUACCUAGGUCAUCGGGUG [Fam2.2 aminoacylation ribozyme variant],3.62,5.37,34,3.08,5.8,5.49
AAGUUUGAUAAGAGUCGCAAG [Fam3.1 aminoacylation ribozyme variant],1.62,1.24,1.67,1.12,1.33,1.06
CCUCACUUCAGGCAAUCGGUC [Fam1B.1 aminoacylation ribozyme variant],0.856,0.947,1.59,0.932,0.952,0.951
AAGUUUGCUAAUAGUCGCACC [Fam3.1 aminoacylation ribozyme variant],0.81,0.718,1.29,0.756,0.849,0.569
AUUCUACUAGGUCAUCGGGUG [Fam2.2 aminoacylation ribozyme variant],3.7,7.31,41.7,3.87,5.93,5.82
CCACACUCCACGCAAUCGGUC [Fam1B.1 aminoacylation ribozyme variant],1.51,1.2,0.759,1.62,1.18,1
UCACACUUCAAGCAAUCAGUC [Fam1B.1 aminoacylation ribozyme variant],0.777,0.817,17.9,0.932,5.72,0.645
AAGUUUGCUAAUCGGCGCAAG [Fam3.1 aminoacylation ribozyme variant],0.842,1.05,2.32,1.14,0.944,1.03
AUUGACCGAGGUCAUCGGGUG [Fam2.2 aminoacylation ribozyme variant],4.88,11,54.8,4.8,8.13,8.11
AUGACUCUGGUCAUCGAGUGA [Fam2.1 aminoacylation ribozyme variant],2.62,5.16,23.2,2.75,5.56,4.86
AUUCUGCUAGGUCAUCGGGUG [Fam2.2 aminoacylation ribozyme variant],5.96,12,72.1,6.13,9.84,9.46
CCGCACUUCAAGCACUCGGUC [Fam1B.1 aminoacylation ribozyme variant],1.38,1.64,1.93,1.79,1.55,1.44
CCACUUCAAACUAUCGGUCUG [Fam1A.1 aminoacylation ribozyme variant],1.44,1.16,0.866,1.46,1.39,1.39
AUUCACCUAAGUCUUCGGGUG [Fam2.2 aminoacylation ribozyme variant],3.49,6.66,33.4,3.85,5.42,4.98
UUUACCCUAGUCAUCGAGUGA [Fam2.1 aminoacylation ribozyme variant],2.79,5.04,17.3,3.09,7.33,5.76
CCACACUUCAAGCAAUGGGUU [Fam1B.1 aminoacylation ribozyme variant],1.22,1.39,0.91,1.71,1.46,1.14
CAACUUCAAACAGUCGGUCUG [Fam1A.1 aminoacylation ribozyme variant],1.21,1.08,5.76,1.19,0.928,1.2
AUAACCCUGGUCAUCGAGUGU [Fam2.1 aminoacylation ribozyme variant],6.98,17.9,69.6,7.4,16.4,20
AUUACCCUGGGCAACGAGUGA [Fam2.1 aminoacylation ribozyme variant],3.81,10.3,57.4,4,10.3,7.64
GCGCACUUCAAGCAAUCGGUC [Fam1B.1 aminoacylation ribozyme variant],2.12,2.65,41.1,2.2,29.6,2.04
AGUCACCUAGGUCAUCGAGUG [Fam2.2 aminoacylation ribozyme variant],3.67,5.93,6.67,3.16,4.19,4.24
AUUACCCUGGUCAACGCGUGA [Fam2.1 aminoacylation ribozyme variant],4.65,12.5,72.1,6.15,12.3,10.8
AUUAACCCGGUCAUCGAGUGA [Fam2.1 aminoacylation ribozyme variant],3.71,7.87,54.5,4.15,9.1,7.21
